This assay has as its target human collagen type I, acid soluble, extracted from placenta (Sigma C7774) (human) (UniProt P02452). Briefly: dried collagen assay.

Bridge positions count the residues as written; N and C are the ends. Square brackets hold non-standard residues; d marks the D form. Primed or numbered codes have the meaning given here. Ends that are not written are not given here. Tyr(3-Cl) = N[C@@H](Cc1ccc(O)c(Cl)c1)C(=O)O; Gd^T″ = GdDTPA-thiourea; Dap = NC[C@H](N)C(=O)O

human collagen type I, acid soluble, extracted from placenta (Sigma C7774) (human), sequence (P02452 162-1218 limits assumed, chain 1 of 2): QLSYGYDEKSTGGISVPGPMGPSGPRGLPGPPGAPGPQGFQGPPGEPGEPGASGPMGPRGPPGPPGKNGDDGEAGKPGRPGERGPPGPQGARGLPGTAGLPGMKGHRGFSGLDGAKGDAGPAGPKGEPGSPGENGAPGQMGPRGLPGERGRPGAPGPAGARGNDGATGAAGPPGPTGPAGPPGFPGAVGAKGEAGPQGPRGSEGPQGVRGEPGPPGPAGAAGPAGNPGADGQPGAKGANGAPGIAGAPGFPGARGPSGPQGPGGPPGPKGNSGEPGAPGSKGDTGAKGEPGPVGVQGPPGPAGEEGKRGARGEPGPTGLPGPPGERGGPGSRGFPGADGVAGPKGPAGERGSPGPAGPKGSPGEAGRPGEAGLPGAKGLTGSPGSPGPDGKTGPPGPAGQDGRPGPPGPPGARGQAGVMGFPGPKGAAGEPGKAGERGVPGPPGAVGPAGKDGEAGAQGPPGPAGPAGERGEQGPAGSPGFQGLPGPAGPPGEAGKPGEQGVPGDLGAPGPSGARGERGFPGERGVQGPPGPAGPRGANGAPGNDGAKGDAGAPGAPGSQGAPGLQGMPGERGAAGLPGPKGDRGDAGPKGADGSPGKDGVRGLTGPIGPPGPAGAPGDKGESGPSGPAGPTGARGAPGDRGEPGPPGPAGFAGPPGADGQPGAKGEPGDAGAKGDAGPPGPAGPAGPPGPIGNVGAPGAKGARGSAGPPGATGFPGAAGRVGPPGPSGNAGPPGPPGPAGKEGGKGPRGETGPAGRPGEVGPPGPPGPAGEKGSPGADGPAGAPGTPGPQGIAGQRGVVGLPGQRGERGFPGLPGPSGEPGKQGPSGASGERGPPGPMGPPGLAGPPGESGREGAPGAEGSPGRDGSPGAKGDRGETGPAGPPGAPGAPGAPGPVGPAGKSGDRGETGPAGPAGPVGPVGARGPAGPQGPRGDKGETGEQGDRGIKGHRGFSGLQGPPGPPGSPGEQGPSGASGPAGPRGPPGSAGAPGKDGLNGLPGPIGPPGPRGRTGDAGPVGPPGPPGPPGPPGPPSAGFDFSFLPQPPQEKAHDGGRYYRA
human collagen type I, acid soluble, extracted from placenta (Sigma C7774) (human), sequence (P08123 80-1119 limits assumed, chain 2 of 2, further chain): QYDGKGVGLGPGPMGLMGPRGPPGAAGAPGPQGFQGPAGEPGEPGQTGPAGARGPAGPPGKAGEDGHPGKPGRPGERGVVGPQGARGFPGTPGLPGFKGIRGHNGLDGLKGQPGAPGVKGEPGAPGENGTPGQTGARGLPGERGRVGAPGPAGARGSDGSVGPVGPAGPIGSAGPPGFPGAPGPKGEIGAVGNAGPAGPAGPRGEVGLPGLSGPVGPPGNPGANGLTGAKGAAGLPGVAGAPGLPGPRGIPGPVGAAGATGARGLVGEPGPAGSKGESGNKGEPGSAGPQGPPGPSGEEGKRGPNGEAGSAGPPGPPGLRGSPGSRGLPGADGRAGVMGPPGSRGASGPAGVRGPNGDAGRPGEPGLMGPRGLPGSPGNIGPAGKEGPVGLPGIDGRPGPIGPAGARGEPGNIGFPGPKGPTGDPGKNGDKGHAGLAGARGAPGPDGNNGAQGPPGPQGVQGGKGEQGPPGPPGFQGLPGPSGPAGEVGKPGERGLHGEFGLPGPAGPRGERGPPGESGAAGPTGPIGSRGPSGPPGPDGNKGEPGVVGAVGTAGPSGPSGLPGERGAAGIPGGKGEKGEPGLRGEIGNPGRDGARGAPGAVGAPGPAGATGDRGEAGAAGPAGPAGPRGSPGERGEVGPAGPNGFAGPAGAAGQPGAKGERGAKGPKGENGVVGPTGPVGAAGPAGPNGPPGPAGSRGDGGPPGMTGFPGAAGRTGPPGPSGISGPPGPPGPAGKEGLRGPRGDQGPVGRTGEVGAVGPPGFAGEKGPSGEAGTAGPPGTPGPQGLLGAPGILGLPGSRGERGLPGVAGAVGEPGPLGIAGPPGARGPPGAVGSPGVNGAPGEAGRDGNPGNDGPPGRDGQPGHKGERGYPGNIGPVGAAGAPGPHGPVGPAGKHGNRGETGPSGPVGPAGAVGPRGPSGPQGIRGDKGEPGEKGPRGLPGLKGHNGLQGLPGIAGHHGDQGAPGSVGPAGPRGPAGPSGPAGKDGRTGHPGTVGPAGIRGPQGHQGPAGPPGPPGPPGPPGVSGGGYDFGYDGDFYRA

{Gd^T″}-GQWHCT[dR]RFPHHYCLYG (disulfide 5-14 (inferred); not fully specified (C-terminus)) [Compound ID 900] displayed a % bound of 4%.

B1: SEQ ID NO 174 (peptide)
peptide: QWTCSGDEYTW[dH]CNYE
modifications: disulfide 4-13 (inferred); not fully specified (N-terminus); printed as QWTCSGDEYTWhCNYE
With B1, the % bound was found to be 5%.

Consider {Gd^T″}-GQWHCTTDFPH[Dap]YCLYG (disulfide 5-14) [Compound ID 886], for which the % bound worked out at 8%.

Take GWQCSGDASVWNCDWI (disulfide 4-13 (inferred)) [SEQ ID NO 39]: the % bound was determined as 6%.

The molecule LWNCHGTDANWKCVLN (disulfide 4-13 (inferred)) [SEQ ID NO 37] had a % bound of 7%.

In turn, {Gd^T″}-GQWHCT[dS]RFPHHYCLYG (disulfide 5-14 (inferred); not fully specified (C-terminus)) [Compound ID 898] yielded a % bound of 5%.

Consider WQVCADSPGVITYCYTY (disulfide 4-14 (inferred)) [SEQ ID NO 98], for which the % bound worked out at 5%.

Molecule {Gd^T″}-GQWHCTTD[Tyr(3-Cl)]PHHYCLYG (disulfide 5-14 (inferred); not fully specified (C-terminus)) [Compound ID 895] had a % bound of 7%.

The molecule FSECVWVNAYQCEYF (disulfide 4-12 (inferred)) [SEQ ID NO 113] had a % bound of 3%.

In turn, GWSCHGDAADWPCQWS (disulfide 4-13 (inferred)) [SEQ ID NO 38] came in with a % bound of 6%.

Turning to SWSCGGDHNAWKCQYS (disulfide 4-13 (inferred)) [SEQ ID NO 36], the % bound is 7%.

{Gd^T″}-GQWHCT[dN]RFPHHYCLYG (disulfide 5-14 (inferred); not fully specified (C-terminus)) [Compound ID 897] gave a % bound of 4%.

In the case of GQWTCSGDEYTAHCNYE (disulfide 5-14 (inferred); not fully specified (C-terminus)) [SEQ ID NO 147], the % bound is 5%.

B2: SEQ ID NO 159 (peptide)
peptide: YHACYQAG[dC]WIW
modifications: disulfide 4-9 (inferred); not fully specified (C-terminus); printed as YHACYQAGcWIW
As to B2, the % bound stood at 7%.

B3: SEQ ID NO 167 (peptide)
peptide: QWT[dC]SGDEYTWHCNYE
modifications: disulfide 4-13 (inferred); not fully specified (N-terminus, C-terminus); printed as QWTcSGDEYTWHCNYE
As for B3, the % bound was determined as 4%.

On to AKKCWYNDGGHLRCRTL (disulfide 4-14 (inferred)) [SEQ ID NO 99], for which the % bound turned out to be 3%.

Molecule YHACYQAGCYIY (disulfide 4-9 (inferred)) [SEQ ID NO 108] had a % bound of 5%.

Values taken from US20080044360A1.
